Molecular target: T1, CcpA (Staphylococcus aureus USA300) (UniProt P99175)
T1 sequence: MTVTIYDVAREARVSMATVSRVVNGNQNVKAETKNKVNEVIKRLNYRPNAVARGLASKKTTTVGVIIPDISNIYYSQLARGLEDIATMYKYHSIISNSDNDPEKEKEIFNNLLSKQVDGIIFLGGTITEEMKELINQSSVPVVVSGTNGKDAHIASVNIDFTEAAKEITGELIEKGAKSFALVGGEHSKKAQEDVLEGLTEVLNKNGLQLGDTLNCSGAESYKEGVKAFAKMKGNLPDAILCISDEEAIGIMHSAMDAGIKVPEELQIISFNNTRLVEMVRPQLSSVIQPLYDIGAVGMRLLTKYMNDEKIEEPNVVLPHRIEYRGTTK
Assay: competition
Details: 10 mM Tris-HCl pH 8.0, 5 mM MgCl2, 1 mM DTT, 50 mM KCl, 0.05% Nonidet P-40, 2.5% glycerol, 25 C, 30 min; 6% native PAGE in 0.5x TBE

## ATGCTTTACCAGCTTTGAATGCTGGAACTTTACTTGCTGGGATATCAATTTCTTTACCAGTTTGAGGGTTACGACCTTTACGTGCAGCACGTTCACGTACCTCAAAGTTACCGAAACCAATTAATTGTACTTTTTCACCTTTAGCAAGTGAGTTTTGGATTGATTCGAATACAGCATCTACTGCTGAACCAGCTTCTTTTT (double strand) [hu]
  binding: no binding
